As a reminder, the Kd is the free concentration of one partner at which half of the binding sites on the other are occupied at equilibrium, for simple one-to-one binding. Read a low Kd as a tighter complex.

Here are results for one molecule from patent US10509035B2, “Antibodies, antibody drug conjugates and methods of use” (GAMAMABS PHARMA, priority 2015, dated 2019).

Experiment [1] has as its system COV434 WT cell line. The experiment in a line: Antibody internalization (flow cytometry). It is filed as cell-based. Particulars: 10 μg/ml, low level of AMHR-II expression. On the procedure:
(§1) Antibody mediated internalization were assessed by flow cytometry analysis and by immunofluorescence imaging. Flow cytometry experiments was done on the two expressing AMHR-II cell lines: COV434 WT with low level of expression and COV434-AMHR-II transfected cell line with high level of expression. Briefly, 5×10^5 cells were incubated with 3C23K at 10 μg/ml and incubated 30 min at 4° C. After washes, DMEM/GlutaMax (Gibco) medium, cold or pre-warmed at 37° C., was added and incubated at 4° C. or 37° C. at different time points (15 min, 30 min and 60 min). Phycoerythrin-conjugated anti-human IgG antibody (1:200, Beckman-Coulter) was added for 30 min at 4° C. FACS analysis of the resuspended cells was done on a BD Accuri™ C6 flow cytometer (BD Bioscience). As depicted in FIGS. 9A and 9B, the internalization of the 3C23K observed at 37° C. is fast whatever the level of AMHR-II expression. For immunofluorescence imaging experiments, COV434 AMHR-II transfected cell line were grown on poly-D lysine coated glass coverslips overnight at 37° C. at a density of 75000 cells/cm^2. Cells were incubated with 3C23K directly labelled with Alexa Fluor 488 for 1H30 at 4° C. to carry out surface labelling. […] Internalization was quantified by counting the number of visible vesicles in cell section at different incubation time using Image J software.
In general terms: Flow cytometry measures light scatter and fluorescence of single cells or particles in a stream.

Experiment [2] concerns the target T1, FCGRIIIA receptor (CD16a) (Homo sapiens, UniProt P08637).
T1 construct: purchased R&D System
The experiment can be described thus: ELISA binding to the extracellular domain of CD16a. Particulars: 200 ng per well CD16a, 0.3 to 5.0 μg/ml. Here is the method: The binding of anti-AMHR-II antibodies to the extracellular domain of CD16a was evaluated by ELISA. ELISA plates (96 wells, Maxisorp, NUnc) were coated overnight at +4° C. with 200 ng per wells of CD16a (R&D System) or an irrelevant protein (NS, non-specific binding). The experimental protocol was identical to that described for example 1. The unconjugated and ADC 3C23K antibodies were tested at concentrations from 0.3 to 5.0 μg/ml.

Experiment [3] has as its target T2, AMHR-II receptor protein (AMHR-II-ECD-Fc) (Homo sapiens, UniProt Q16671).
T2 construct: Fc (C); purchased R&D System
T2 sequence (Q16671 18-149 limits assumed): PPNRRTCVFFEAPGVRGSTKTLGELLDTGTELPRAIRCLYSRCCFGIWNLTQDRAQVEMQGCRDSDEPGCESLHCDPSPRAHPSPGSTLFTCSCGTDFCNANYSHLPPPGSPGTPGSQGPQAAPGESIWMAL
The experiment in a line: Binding kinetic parameters by surface plasmon resonance (Bia3000) on immobilized AMHR-II-ECD-Fc. Particulars: SPR, 25° C., Langmuir 1:1 fitting model. Here is the method: Immobilization of AMHRII was performed on a Bia3000 apparatus at 25° C. in HBS-EP (HEPES 10 mM, NaCl 150 mM, EDTA 3 mM, P20 surfactant 0.005%) at […] flow rate on CM5 sensor chip using EDC/NHS (1-Ethyl-3-3-dimethylaminopropyl carbodiimidehydrochloride) activation according to the manufacturer's instructions (GEHealthcare). Briefly, carboxyl functions of CM5 sensor chip were activated with 0.4M EDC/0.1M NHS during 7 min. A solution of AMHR-II-ECD-Fc (R&D System) at 2.5 μg/ml in sodium acetate buffer was injected during 12 min. An injection of 1M ethanolamine hydrochloride was used to neutralize the activation. Recombinant AMHR-II was covalently immobilized at 1270 RU level. A control reference surface was prepared using the same chemical treatment of without injection of AMHRII.
Antibodies at different concentrations (from 0.5 nM to 133 nM) were injected during 180s on AMHRII-coated flowcell and the control flowcell. After a dissociation step of 400s in running buffer, sensor surfaces were regenerated using 5 μl of Glycine-HCl pH1.7. All the sensorgrams were corrected by subtracting the low signal from the control reference surface. Kinetic parameters were evaluated from the sensorgrams using a Langmuir 1:1 fitting model on the BiaEvaluation 4.2 software.

Experiment [4] deals with COV434 AMHR-II transfected cell line. The experiment can be described thus: Antibody internalization (flow cytometry and immunofluorescence imaging). It is filed as cell-based. On the procedure: Antibody mediated internalization were assessed by flow cytometry analysis and by immunofluorescence imaging. Flow cytometry experiments was done on the two expressing AMHR-II cell lines: COV434 WT with low level of expression and COV434-AMHR-II transfected cell line with high level of expression. Briefly, 5×10^5 cells were incubated with 3C23K at 10 μg/ml and incubated 30 min at 4° C. After washes, DMEM/GlutaMax (Gibco) medium, cold or pre-warmed at 37° C., was added and incubated at 4° C. or 37° C. at different time points (15 min, 30 min and 60 min). Phycoerythrin-conjugated anti-human IgG antibody (1:200, Beckman-Coulter) was added for 30 min at 4° C. FACS analysis of the resuspended cells was done on a BD Accuri™ C6 flow cytometer (BD Bioscience). As depicted in FIGS. 9A and 9B, the internalization of the 3C23K observed at 37° C. is fast whatever the level of AMHR-II expression. For immunofluorescence imaging experiments, COV434 AMHR-II transfected cell line were grown on poly-D lysine coated glass coverslips overnight at 37° C. at a density of 75000 cells/cm^2. Cells were incubated with 3C23K directly labelled with Alexa Fluor 488 for 1H30 at 4° C. to carry out surface labelling. Cell surface bound antibodies were allowed to internalize by incubating cells in prewarmed medium at 37° C. At appropriate time points, coverslips were removed and cells were washed in PBS, then fixed in formaline (4%, 30 min at room temperature) and permeabilized (Triton X-100 0.5%, 5 min at room temperature). Nuclei were stained with DAPI (4′,6-diamidino-2-phenylindole) and coverslips were mounted on microscope slides and imaged with Leica DM5000 microscope (Leica Microsystems). Internalization was quantified by counting the number of visible vesicles in cell section at different incubation time using Image J software.
The internalization capacity of the K4D24 and 6C59 variants was assayed by fluorescence cytometry analysis in the same manner as in Example 8 except for the concentrations used. Due to their strong binding, K4D24 and 6C59 were used at 0.5 μg/ml and 0.3 μg/ml respectively whereas the 3C23K was used at 10 μg/ml.

Experiment [5] has as its target T3, AMHR2 receptor expressed at the surface membrane of the COV434 AMHR2 transfected cell line (Homo sapiens, UniProt Q16671).
T3 construct: expressed in transfected cells; host or cells: COV434
T3 sequence (Q16671 18-573): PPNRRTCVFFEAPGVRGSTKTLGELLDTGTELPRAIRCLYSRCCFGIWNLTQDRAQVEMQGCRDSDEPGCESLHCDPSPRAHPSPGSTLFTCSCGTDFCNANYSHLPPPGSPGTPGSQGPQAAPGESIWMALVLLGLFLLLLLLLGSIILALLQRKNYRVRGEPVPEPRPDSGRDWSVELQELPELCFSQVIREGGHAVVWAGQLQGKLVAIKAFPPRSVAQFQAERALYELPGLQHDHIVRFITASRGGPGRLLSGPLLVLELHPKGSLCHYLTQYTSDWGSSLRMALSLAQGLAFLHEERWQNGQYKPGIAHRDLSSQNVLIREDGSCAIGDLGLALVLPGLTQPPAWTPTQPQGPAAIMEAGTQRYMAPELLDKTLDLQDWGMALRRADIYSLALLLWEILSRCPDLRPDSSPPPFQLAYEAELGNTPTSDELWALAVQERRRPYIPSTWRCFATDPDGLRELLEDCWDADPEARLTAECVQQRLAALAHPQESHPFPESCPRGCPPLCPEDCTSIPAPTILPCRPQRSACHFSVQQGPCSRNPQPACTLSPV
The experiment in a line: FACS binding to AMHR-II receptor at the surface of the COV434 AMHR-II transfected cell line. To be noted: concentrations 0.5 to 75 μg/ml, Hill slope fit (Example 4). On the procedure: The COV434 AMHR-II transfected and the COV434 WT cell lines were maintained in DMEM/GlutaMax (Gibco) supplemented with 10% FBS, penicillin 100 U/ml and Streptomycin 100 μg/ml. Geneticin at 666 μg/ml was added for the COV434 AMHR-II transfected cell line. […] After washes, Phycoerythrin-conjugated anti-human IgG antibody (1:200, Beckman-Coulter) was added for 1 hour at room temperature. FACS analysis of the resuspended cells was done on a BD Accuri™ C6 flow cytometer (BD Bioscience).
The binding capacity of the anti-AMHR-II antibody variants K4D24 and 6C59 to the AMHR-II expressing cell lines was evaluated by flow cytometry analysis in the same manner as example 4. FACS analysis with COV434-AMHR-II transfected cell line is described in FIG. 16. The Kapparent of the K4D24 and 6C59 variants were improved by a factor of 20 and 40 fold respectively as compared to the 3C23K (0.098 μg/ml and 0.05 μg/ml versus 2.2 μg/ml). The binding capacity of these variants was also assayed on the low expressing AMHR-II COV434 WT cell line. In this setting the binding was evaluated with three concentrations of variants (25, 10 and 5 μg/ml) and three concentrations of 3C23K (50, 25 and 10 μg/ml).

Experiment [6] deals with COV434 AMHR-II transfected cell line. The experiment can be described thus: Apoptosis induction, Annexin V-FITC / propidium iodide flow cytometry. Type of experiment: cell-based. To be noted: 250 μg/ml, 48 hours. On the procedure: The percentage of apoptotic was assessed using the Annexin V-Fluos Staining kit (Roche) according to the manufacturer's protocol. […] Carboplatin (300 μM) was used as positive control. After washes and centrifugation, the cell pellets were resuspended in the Annexin-V-Fluorescein and propidium iodide reagents. Following 10 minutes incubation at room temperature, samples were analyzed by flow cytometry on a BD Accuri™ C6 flow cytometer (BD Bioscience).

The test system is the same in experiment [7]. The experiment in a line: Co-localization with the lysosomal marker LAMP-1 (immunofluorescence). Type of experiment: cell-based. Here is the method: as §1, with “software. […]” for “software.”

T1 sequence (P08637 17-208 limits assumed): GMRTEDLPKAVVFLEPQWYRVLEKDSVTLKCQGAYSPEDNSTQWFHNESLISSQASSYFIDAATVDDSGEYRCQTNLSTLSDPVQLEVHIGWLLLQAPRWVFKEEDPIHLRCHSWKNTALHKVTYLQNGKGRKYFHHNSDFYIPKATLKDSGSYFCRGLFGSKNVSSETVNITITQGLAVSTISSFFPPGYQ

B1: 3C23K (antibody, V domains shown)
VH: QVRLVQSGAEVKKPGASVKVSCKASGYTFTSYHIHWVRQAPGQRLEWMGWIYPGDDSTKYSQKFQGRVTITRDTSASTAYMELSSLRSEDTAVYYCTRGDRFAYWGQGTLVTVSS
VL: DIQMTQSPSTLSASVGDRVTITCRASSSVRYIAWYQQKPGKAPKLLTYPTSSLKSGVPSRFSGSGSGTEFTLTISSLQPDDFATYYCLQWSSYPWTFGGGTKVEIK
modifications: 3C23K/3C23; 3C23K
As for B1, the “internalization observed at 37° C.” value in experiment [1] was “fast”. In experiment [2], the “binding to CD16a” value was “very high affinity”. In experiment [3], this molecule had a KA of 1.81e+10 M⁻¹, a Kd of 0.05 nM, a ka of 125000 M⁻¹ s⁻¹ and a kd of 6.93e-06 s⁻¹. Moreover, in experiment [4] (flow cytometry, 10 μg/ml, high level of AMHR-II expression), the “internalization observed at 37° C.” value is recorded as “fast”. Also, the “time of maximum of intracellular location” value in experiment [4] (immunofluorescence imaging, 3C23K Alexa Fluor 488, 37° C.) worked out at 60 min. For the same molecule, the KDapparent in experiment [5] is ~3.1 µg/mL. In experiment [6], the apoptosis induction entry was “did not induce any apoptosis”. In experiment [7], the “detection in the lysosomal compartment (colocalization with LAMP-1)” value was “rapidly detected in the lysosomal compartment”.
